Results as given in the supplement of paper PMC6379048.

Assays:
Test in all cases: EC50 of free RNA motif oligo competing protein binding to immobilised probe
PUF60 = biological target: T1, PUF60 (UniProt Q9UHX1)
T1 sequence: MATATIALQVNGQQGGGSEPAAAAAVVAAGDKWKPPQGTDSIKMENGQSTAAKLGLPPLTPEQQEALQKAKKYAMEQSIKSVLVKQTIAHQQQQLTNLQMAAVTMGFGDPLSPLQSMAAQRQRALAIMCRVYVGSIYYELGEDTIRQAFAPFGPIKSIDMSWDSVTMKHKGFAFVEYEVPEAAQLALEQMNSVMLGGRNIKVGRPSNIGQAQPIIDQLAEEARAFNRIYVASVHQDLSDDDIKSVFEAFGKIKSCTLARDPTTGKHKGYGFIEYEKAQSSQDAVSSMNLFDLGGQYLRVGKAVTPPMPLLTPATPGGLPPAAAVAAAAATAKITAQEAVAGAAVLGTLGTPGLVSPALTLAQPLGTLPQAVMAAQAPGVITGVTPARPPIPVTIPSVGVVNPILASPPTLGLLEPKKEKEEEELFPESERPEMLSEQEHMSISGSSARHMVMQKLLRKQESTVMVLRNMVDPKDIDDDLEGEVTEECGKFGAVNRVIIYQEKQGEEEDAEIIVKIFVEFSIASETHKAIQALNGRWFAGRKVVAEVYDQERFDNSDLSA
In short: (§1)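 Free RNA oligos (0 nM to 30 μM) were pre-incubated with HEK293-FT lysate (2.5 mg protein/well) for 1 h at 4°C, followed by 30 min at 4°C with the same 5′-amino-C6 oligos coupled to NHS-Sepharose beads. Bound proteins were quantified by label-free LC-MS/MS and normalised to the control. EC50 was derived from a four-parameter log-logistic fit, and Kd was obtained by multiplying EC50 by a protein-dependent depletion factor.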

RBM47 = biological target: T2, RBM47 (UniProt A0AV96)
T2 sequence: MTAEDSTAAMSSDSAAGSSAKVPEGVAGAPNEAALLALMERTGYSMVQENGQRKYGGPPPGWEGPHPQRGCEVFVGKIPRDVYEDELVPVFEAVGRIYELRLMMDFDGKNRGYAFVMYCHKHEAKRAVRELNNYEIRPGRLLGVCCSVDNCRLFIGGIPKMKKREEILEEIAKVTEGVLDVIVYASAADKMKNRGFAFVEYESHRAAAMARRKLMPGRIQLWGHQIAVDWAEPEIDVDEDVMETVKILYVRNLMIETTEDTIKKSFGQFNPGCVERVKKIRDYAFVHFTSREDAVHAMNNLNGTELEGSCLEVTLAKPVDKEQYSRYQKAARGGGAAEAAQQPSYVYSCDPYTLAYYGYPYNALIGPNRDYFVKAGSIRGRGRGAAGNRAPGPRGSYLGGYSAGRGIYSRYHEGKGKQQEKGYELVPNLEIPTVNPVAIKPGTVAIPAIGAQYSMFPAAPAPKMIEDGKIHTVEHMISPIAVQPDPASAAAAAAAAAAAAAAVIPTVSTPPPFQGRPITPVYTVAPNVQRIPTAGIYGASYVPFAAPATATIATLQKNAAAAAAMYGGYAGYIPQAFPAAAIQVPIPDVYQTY
In short: as §1

P4HA2 = P4HA2 (UniProt O15460)
Sequence of P4HA2 (O15460 whole entry): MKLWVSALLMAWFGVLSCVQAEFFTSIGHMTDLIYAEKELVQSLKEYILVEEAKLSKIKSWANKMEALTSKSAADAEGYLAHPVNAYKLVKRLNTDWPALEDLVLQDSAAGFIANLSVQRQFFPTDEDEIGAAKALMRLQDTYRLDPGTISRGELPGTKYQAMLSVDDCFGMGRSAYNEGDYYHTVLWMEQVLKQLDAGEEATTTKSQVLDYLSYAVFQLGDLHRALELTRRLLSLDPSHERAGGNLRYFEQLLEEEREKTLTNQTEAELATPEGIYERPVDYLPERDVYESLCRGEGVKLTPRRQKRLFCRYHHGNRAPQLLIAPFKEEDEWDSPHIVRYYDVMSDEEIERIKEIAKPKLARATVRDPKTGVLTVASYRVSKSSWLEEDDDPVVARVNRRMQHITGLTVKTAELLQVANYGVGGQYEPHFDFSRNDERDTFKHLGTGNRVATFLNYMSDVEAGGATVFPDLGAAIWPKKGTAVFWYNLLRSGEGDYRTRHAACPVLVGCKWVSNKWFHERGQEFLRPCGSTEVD
In short: as §1

ZFP36L1 = biological target: T3, ZFP36L1 (UniProt Q07352)
T3 sequence: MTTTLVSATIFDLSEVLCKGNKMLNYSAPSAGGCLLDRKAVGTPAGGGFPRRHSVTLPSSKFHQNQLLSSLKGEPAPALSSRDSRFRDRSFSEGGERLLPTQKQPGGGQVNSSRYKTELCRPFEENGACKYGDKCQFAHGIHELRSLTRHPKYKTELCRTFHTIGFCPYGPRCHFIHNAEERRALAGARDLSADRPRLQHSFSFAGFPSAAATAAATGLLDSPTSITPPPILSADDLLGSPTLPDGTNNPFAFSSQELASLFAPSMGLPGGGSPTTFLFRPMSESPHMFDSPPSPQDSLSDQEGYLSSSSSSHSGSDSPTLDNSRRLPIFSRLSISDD
In short: as §1

Q: AAUAAA was tested. Which EC50 (PUF60) did it give?
A: Its EC50 is 899 nM.

Q: And the EC50 (RBM47)?
A: Its EC50 is 3730 nM.

Q: And the EC50 (P4HA2)?
A: Its EC50 is 38.9 nM.

Q: For UAUUUAU, which EC50 (ZFP36L1) is on record?
A: Its EC50 is 73.9 nM.
